Data taken from US20250340655A1, “EPHA2-TARGETING ANTIBODIES AND THEIR APPLICATIONS IN CANCER TREATMENT” (TAIPEI MEDICAL UNIVERSITY, priority 2022, published 2025).

What was measured:
[1] = target: T1, endogenous EphA2 molecules on three strains of gastric cancer cells (Homo sapiens, UniProt P29317); assay: Flow cytometry binding on gastric cancer cells; settings: flow cytometry (FIG. 15A)
T1 construct: identify endogenous EphA2 molecules on three strains of gastric cancer cells; endogenous in cells
T1 sequence (P29317 24-976): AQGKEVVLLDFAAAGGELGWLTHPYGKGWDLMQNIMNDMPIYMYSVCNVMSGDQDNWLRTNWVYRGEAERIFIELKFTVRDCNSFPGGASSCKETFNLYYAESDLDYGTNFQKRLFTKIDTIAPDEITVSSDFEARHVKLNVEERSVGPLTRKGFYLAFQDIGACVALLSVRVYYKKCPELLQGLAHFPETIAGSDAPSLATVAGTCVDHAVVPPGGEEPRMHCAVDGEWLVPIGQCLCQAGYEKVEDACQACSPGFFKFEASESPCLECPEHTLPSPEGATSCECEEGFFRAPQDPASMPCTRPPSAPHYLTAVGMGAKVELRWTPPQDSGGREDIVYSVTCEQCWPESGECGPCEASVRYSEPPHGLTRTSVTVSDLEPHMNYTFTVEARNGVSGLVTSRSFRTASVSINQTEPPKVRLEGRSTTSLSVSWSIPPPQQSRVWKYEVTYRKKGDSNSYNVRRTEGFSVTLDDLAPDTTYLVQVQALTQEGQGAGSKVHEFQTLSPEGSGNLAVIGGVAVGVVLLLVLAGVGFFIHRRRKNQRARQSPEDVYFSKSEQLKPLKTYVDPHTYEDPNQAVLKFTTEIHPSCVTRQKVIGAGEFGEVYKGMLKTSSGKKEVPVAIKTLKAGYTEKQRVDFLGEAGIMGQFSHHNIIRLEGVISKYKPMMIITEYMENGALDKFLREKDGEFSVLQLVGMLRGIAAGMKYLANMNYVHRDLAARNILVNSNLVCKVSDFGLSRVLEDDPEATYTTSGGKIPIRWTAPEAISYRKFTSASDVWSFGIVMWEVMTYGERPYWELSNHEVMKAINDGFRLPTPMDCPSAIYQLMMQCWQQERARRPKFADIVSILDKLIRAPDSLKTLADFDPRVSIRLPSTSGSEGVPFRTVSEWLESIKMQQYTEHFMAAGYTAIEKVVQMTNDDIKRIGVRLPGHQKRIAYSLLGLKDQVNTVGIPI
Source text: Flow cytometry was used to analyze the response of hSD5 IgG in identifying endogenous EphA2 molecules on the three strains of gastric cancer cell lines. PC represents the use of commercial Ab to determine the expression of EphA2 on cancer cells; NC represents the control group with irreverent of the isotype IgG1 antibody. The hSD5 was used to identify endogenous EphA2 molecules on three strains of gastric cancer cells by flow cytometry analysis. […] (FIG. 15A)

[2] = target: T2, endogenous EphA2 molecules on the four brain tumor cell lines (GBM8901, LN229, T98G and U87MG) (Homo sapiens, UniProt P29317); assay: Flow cytometry binding on brain tumor cell lines; settings: flow cytometry (FIG. 16B)
T2 construct: identifying endogenous EphA2 molecules on the four strains of brain tumor cell lines; endogenous in cells; host or cells: GBM8901, LN229, T98G, U87MG
T2 sequence (P29317 24-976, stated change not applied): as the sequence (P29317 24-976) above
Source text: Flow cytometry was used to analyze the response of hSD5 IgG in identifying endogenous EphA2 molecules on the four strains of brain tumor cell lines. PC represents the use of commercial Ab to determine the expression of EphA2 on cancer cells; NC represents the control group with irreverent of the isotype IgG1 antibody. (FIG. 16B)
The hSD5 was used to identify endogenous EphA2 molecules on the four brain tumor cell lines by flow cytometry analysis. PC uses a commercial anti-EphA2 antibody, and NC is the control group with irreverent of the isotype IgG1.

[3] = target: T3, endogenous EphA2 molecules on cholagiocarcinoma cell lines (HuCCT1, ssp-25, RBE, TFK) and bladder cancer cell line (PC-3) (Homo sapiens, UniProt P29317); assay: Flow cytometry binding on cholagiocarcinoma and bladder cancer cell lines; settings: cholagiocarcinoma and bladder cancer cell lines (FIG. 17B)
T3 construct: endogenous in cells; host or cells: HuCCT1, ssp-25, RBE, TFK, PC-3
T3 sequence (P29317 24-976): as above
Source text: Flow cytometry was used to analyze the response of hSD5 IgG with different concentrations in identifying endogenous EphA2 molecules on the four strains of cholagiocarcinoma cell lines and bladder cancer cell line. PC represents the use of commercial Ab to determine the expression of EphA2 on cancer cells.

Mia PaCa-2 tumor = Mia PaCa-2 tumor xenograft model (IgG hSD5, gemcitabine); assay type: in vivo, mouse
Method: The freshly prepared BxPc-3 and Mia PaCa-2 cancer cells were harvested during the log growth phase and resuspended in PBS for tumor implantation. Each NOD/SCID mouse was subcutaneously inoculated with cancer cells (5×10^6 to BxPc-3 and 1×10^7 to Mia PaCa-2) for tumor formation. The tumor size was measured twice weekly, and the volume was calculated as follows: V=0.5lw^2, where l=the length and w=the width. When the tumor size was approximately 100 mm3, animals were divided into groups that received (a) vehicle alone through intravenous injection (i.v.) once weekly (qwk), (b) control human IgG1 at 20 mg/kg through i.v. qwk, (c) and (d) hSD5 IgG1 at 2 or 20 mg/kg through i.v. qwk, (e) and (f) gemcitabine at 20 or 100 mg/kg through i.v. twice weekly (biw), or (g) hSD5 IgG1 at 2 mg/kg through i.v. qwk combined with gemcitabine at 20 mg/kg through i.v. biw. At the end of the experiment, the antitumor effects were quantified by dividing the tumor volumes in the treatment groups by those in the control groups and multiplying them by 100 to represent tumor growth inhibition (TGI; %). The mice were also examined frequently for overt signs of adverse drug-related side effects.
The pancreatic tissue microarray slide (US Biomax, PA483e) was used to detect and analyze the EphA2 expression of clinical samples. In the xenograft animal model, the excised BxPc-3 and Mia PaCa-2 tumors were fixed in formalin, embedded in paraffin, and sliced for immunohistochemical staining (IHC). Commercial antibodies (Cell signaling, Dako; Agilent Technologies; and Abcam) were used for staining the EphA2 molecule, cell proliferation marker Ki-67, and apoptosis marker cleaved caspase 3. The effects of staining were observed using a Zeiss Axioskop-2 microscope (Carl Zeiss).
Mia PaCa-2 xenograft mice was also used to determine the inhibitory effect of IgG hSD5 on in vivo tumor growth. Administration of IgG hSD5 (20 mg/kg, iv, qwk, indicated as blue filled inverted triangles) and Gemcitabine (100 mg/kg, iv, biw, indicated as orange filled squares) were used to test the inhibition effect on BxPc-3 tumor growth, n=6, TGI denotes Tumor growth inhibition. (FIG. 8A) Administration of IgG hSD5 (2 mg/kg, iv, qwk, indicated by solid black triangles), Gemcitabine (20 mg/kg, iv, biw, indicated by black open squares), and the experimental group that combined IgG and Gemcitabine treatment simultaneously (indicated by solid red diamonds) were used to teat the growth inhibitory effect of BxPc-3 on the tumor. (FIG. 8B) During treatments, the weight changes of each mouse group were tracked. (FIG. 8C) The expression levels of EphA2, cell proliferation marker Ki67, and apoptosis-related marker cleaved caspase3 in the excised tumor groups were analyzed by IHC staining. (FIG. 8D)

[4] = system: EphA2pep_P1 and EphA2pep_P2 synthetic peptides; assay: Dot blot assay with synthetic peptides; assay type: binding; settings: dot blot (FIG. 9B)
Source text: We used peptide enzyme-linked immunosorbent assay (ELISA) to identify the designed epitope on EphA2; the BSA-conjugated peptides EphA2pep_P1 (BSA-[…]) and EphA2pep_P2 (BSA-[…]) each represent the two segments of the linear epitope designed on EphA2. EphA2pep_PIP2 (BSA-[…]) represents the two linear epitope sequences connected by a linker. These peptides were synthesized and conjugated with BSA (Kelowna International Scientific). The BSA-conjugated peptides were individually coated on a 96-well microplate at 4° C. overnight. After the wells were blocked with 3% BSA, IgG hSD5 was added and incubated. Next, an HRP-conjugated anti-HA tag antibody (Cell Signaling Technology) was used to detect bound scFv. Finally, the TMB substrate was added for development, and the reaction was stopped by adding 1 N HCl. Absorbance was measured by determining the OD at 450 nm. A dot blot assay was used to detect the binding of IgG hSD5 to the synthesized peptides; […] of individual peptides (1 mg/mL; in triplicate) were dropped on the NC membrane and maintained at RT for complete absorption. Blocking with 3% BSA was performed at RT for 1 h. Then, IgG hSD5 (10 μg/mL) was added, and the reaction was allowed to proceed for 1 h at RT. After the membrane was washed, the HRP-conjugated anti-HA tag antibody was added, and the reaction was allowed to proceed for 1 h at RT. […]

binding response to EphA2 molecules on gastric cancer cells [1]: significant binding response
binding response to EphA2 molecules on brain cancer cells [2]: significant binding response
binding response to EphA2 molecules on cancer cells [3]: significant binding response
binding reaction with EphA2pep_P1 compared with EphA2pep_P2 [4]: stronger
B1: IgG hSD5: complete humanized anti-EphA2 IgG (IgG1) of hSD5 (antibody, V domains shown)
VH: QVQLVESGGGLVQPGGSLRLSCAASGFTFSDYGMGWVRQAPGKGLEWVAGISAAGSFTPYGAAVKGRFTISRDNSKNTVYLQMNSLRAEDTAVYYCARIPSGYRAGEIYTWGQGTLVTVSS
VL: LTQPPSVSVSPGQTVRITCSGSSGSYGWYQQKSPGQAPVTLIYDNDKRPSGIPERFSGSSSGSTSTLTISGVQAEDEADYYCGSADSSTYVGMFGGGTKLTVL
expression levels of EphA2 and Ki-67 in the tissue (Mia PaCa-2 tumor; IHC of Mia PaCa-2 tumor tissue sections (FIG. 8D)): significantly decreased
TGI (tumor growth inhibition) (Mia PaCa-2 tumor; Mia PaCa-2 xenograft, 20 mg/kg): 63.2%
recognition of EphA2pep_P1 and EphA2pep_P2 [4]: can recognize both the antigen fragments
